Test results taken from patent publication US20170296524A1 (KLINIKUM RECHTS DER ISAR DER TECHNISCHEN UNIVERSITAT MUNCHEN, published 2017).

B1: MCT1 (monocarboxylate transporter 1), endogenous (other, human, UniProt P53985 1-500, looked up)
chain: MPPAVGGPVGYTPPDGGWGWAVVIGAFISIGFSYAFPKSITVFFKEIEGIFHATTSEVSWISSIMLAVMYGGGPISSILVNKYGSRIVMIVGGCLSGCGLIAASFCNTVQQLYVCIGVIGGLGLAFNLNPALTMIGKYFYKRRPLANGLAMAGSPVFLCTLAPLNQVFFGIFGWRGSFLILGGLLLNCCVAGALMRPIGPKPTKAGKDKSKASLEKAGKSGVKKDLHDANTDLIGRHPKQEKRSVFQTINQFLDLTLFTHRGFLLYLSGNVIMFFGLFAPLVFLSSYGKSQHYSSEKSAFLLSILAFVDMVARPSMGLVANTKPIRPRIQYFFAASVVANGVCHMLAPLSTTYVGFCVYAGFFGFAFGWLSSVLFETLMDLVGPQRFSSAVGLVTIVECCPVLLGPPLLGRLNDMYGDYKYTYWACGVVLIISGIYLFIGMGINYRLLAKEQKANEQKKESKEEETSIDVAGKPNEVTKAAESPDQKDTDGGPKEEESPV
notes: Endogenous protein in HEK 293T or MM1S cell lysates

Key:
[1] = molecular target: T1, HA-CUL4A (UniProt Q13619 1-759, limits assumed); experiment: HA-CUL4A purified from HEK293T cells, incubated with MM1S extracts, immunoblot
T1 construct: Purified from HEK293T cells and incubated with MM1S cell extracts; not shown: HA tag
Description: Bound protein fractions were subjected to immunoblot analysis using the indicated antibodies.

[2] = molecular target: T2, Cereblon (CRBN), human, wild type, without tag (endogenous or expressed from plasmid) (human, UniProt Q96SW2 1-442); experiment: co-immunoprecipitation
T2 construct: Endogenous protein in HEK 293T or MM1.S/MM1S lysates, or untagged wild-type CRBN re-expressed in CRBN-/- HEK 293T cells; also called CRBN WT; endogenous CRBN

[3] = molecular target: T3, FLAG-MCT1 (human, UniProt P53985 1-500); experiment: FLAG-MCT1 immunoprecipitation from cycloheximide-treated HEK293T cells, immunoblot (FIG. 13G)
T3 construct: Expressed in HEK293T cells; The tag is written first only because the name prints it so; also called Flag-tagged MCT1; not shown: FLAG tag
T3 sequence (looked up): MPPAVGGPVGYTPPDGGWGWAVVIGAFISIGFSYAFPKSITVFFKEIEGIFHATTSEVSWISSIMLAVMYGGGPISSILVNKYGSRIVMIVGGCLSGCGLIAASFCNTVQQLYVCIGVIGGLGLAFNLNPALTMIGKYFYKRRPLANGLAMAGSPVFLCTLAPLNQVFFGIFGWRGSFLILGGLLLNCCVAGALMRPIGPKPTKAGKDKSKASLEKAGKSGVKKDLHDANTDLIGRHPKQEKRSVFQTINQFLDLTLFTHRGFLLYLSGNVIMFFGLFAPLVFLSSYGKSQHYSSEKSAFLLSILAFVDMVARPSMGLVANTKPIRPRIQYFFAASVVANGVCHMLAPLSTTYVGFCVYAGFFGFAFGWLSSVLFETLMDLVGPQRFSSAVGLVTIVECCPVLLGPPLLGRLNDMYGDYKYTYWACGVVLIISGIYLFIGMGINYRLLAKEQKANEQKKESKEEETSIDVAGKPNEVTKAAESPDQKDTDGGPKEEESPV

[4] = molecular target: T4, Strep-Flag tagged CRBN (CRBN-SF) (human, UniProt Q96SW2 1-442); experiment: tandem affinity purification (Strep, then Flag) from HEK 293T cells, mass spectrometry
T4 construct: Tag put at the C-terminus from the vector's name (pcDNA-C-SF-TAP); also called CRBN-SF-TAP; CRBN-tandem-Strep-FLAG-tagged; not shown: tandem Strep-FLAG tag of vector pcDNA-C-SF-TAP

[5] = molecular target: T3, FLAG-MCT1; experiment: Flag-bead immunoprecipitation of Flag-MCT1 from HEK 293T cells with or without co-expressed CRBN, Western blot for CD147
[6] = molecular target: T2, Cereblon (CRBN), human, wild type, …; experiment: heading of FIG. 16: FLAG immunoprecipitation from HEK293T cells (16A) and GST-CRBN pull-down (16B)
[7] = molecular target: B1; experiment: FLAG-CD147 immunoprecipitation from cycloheximide-treated HEK293T cells, immunoblot (FIG. 13F)
Method: Cells were treated with cycloheximide (CHX) for the indicated times before lysis.

T2 sequence (Q96SW2 whole entry): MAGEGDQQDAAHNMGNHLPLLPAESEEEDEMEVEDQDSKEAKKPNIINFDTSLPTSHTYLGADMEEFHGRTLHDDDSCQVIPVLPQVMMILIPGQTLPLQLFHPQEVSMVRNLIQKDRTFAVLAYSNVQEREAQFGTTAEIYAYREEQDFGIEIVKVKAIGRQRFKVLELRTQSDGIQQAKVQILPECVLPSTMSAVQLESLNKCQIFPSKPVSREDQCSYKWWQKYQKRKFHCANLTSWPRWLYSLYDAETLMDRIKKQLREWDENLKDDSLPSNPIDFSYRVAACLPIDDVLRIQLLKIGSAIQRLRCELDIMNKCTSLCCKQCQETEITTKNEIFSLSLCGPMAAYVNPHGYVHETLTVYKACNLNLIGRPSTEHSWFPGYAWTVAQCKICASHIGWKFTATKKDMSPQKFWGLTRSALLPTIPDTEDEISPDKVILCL
T1 sequence (Q13619 whole entry): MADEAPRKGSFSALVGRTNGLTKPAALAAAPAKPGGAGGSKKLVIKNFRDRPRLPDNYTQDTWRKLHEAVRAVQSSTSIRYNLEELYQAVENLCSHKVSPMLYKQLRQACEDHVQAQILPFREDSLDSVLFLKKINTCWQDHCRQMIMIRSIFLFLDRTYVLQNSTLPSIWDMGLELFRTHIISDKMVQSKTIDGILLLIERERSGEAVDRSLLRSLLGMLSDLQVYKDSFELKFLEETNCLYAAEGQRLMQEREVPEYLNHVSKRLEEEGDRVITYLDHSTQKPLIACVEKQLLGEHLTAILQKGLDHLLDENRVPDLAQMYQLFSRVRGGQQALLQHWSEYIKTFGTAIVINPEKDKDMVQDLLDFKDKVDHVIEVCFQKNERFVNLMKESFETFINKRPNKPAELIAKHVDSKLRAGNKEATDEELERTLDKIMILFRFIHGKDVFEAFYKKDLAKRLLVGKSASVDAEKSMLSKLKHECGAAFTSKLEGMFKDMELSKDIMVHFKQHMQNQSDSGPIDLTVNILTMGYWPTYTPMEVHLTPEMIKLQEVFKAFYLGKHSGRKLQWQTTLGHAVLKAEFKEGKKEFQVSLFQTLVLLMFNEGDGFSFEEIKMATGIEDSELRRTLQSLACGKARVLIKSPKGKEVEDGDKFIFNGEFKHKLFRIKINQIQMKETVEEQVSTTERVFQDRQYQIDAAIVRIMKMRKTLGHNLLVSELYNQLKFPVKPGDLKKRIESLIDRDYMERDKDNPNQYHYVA
T4 sequence (Q96SW2 whole entry): as the sequence (Q96SW2 whole entry) above

B1: no binding [1].

B2: CD147 (Basigin, EMMPRIN), endogenous (other, human, UniProt P35613-2 22-269, looked up)
chain: AAGTVFTTVEDLGSKILLTCSLNDSATEVTGHRWLKGGVVLKEDALPGQKTEFKVDSDDQWGEYSCVFLPEPMGTANIQLHGPPRVKAVKSSEHINEGETAMLVCKSESVPPVTDWAWYKITDSEDKALMNGSESRFFVSSSQGRSELHIENLNMEADPGQYRCNGTSSKGSDQAIITLRVRSHLAALWPFLGIVAEVLVLVTIIFIYEKRRKPEDVLDDDDAGSAPLKSSGQHQNDKGKNVRQRNSS
modifications: core-glycosylated (CG) and high-glycosylated (HG) forms
notes: as for B1
B2: binds [2]; no binding [1]; binds [3]. B2: binds [4].

B3: HA-CD147 (other, human, UniProt P35613-2 22-269, looked up)
chain: AAGTVFTTVEDLGSKILLTCSLNDSATEVTGHRWLKGGVVLKEDALPGQKTEFKVDSDDQWGEYSCVFLPEPMGTANIQLHGPPRVKAVKSSEHINEGETAMLVCKSESVPPVTDWAWYKITDSEDKALMNGSESRFFVSSSQGRSELHIENLNMEADPGQYRCNGTSSKGSDQAIITLRVRSHLAALWPFLGIVAEVLVLVTIIFIYEKRRKPEDVLDDDDAGSAPLKSSGQHQNDKGKNVRQRNSS
notes: Expressed in HEK 293T cells; not shown: HA tag
B3: binds [5].

B4: FLAG-CD147 (other, human, UniProt P35613-2 22-269, looked up)
chain: AAGTVFTTVEDLGSKILLTCSLNDSATEVTGHRWLKGGVVLKEDALPGQKTEFKVDSDDQWGEYSCVFLPEPMGTANIQLHGPPRVKAVKSSEHINEGETAMLVCKSESVPPVTDWAWYKITDSEDKALMNGSESRFFVSSSQGRSELHIENLNMEADPGQYRCNGTSSKGSDQAIITLRVRSHLAALWPFLGIVAEVLVLVTIIFIYEKRRKPEDVLDDDDAGSAPLKSSGQHQNDKGKNVRQRNSS
notes: Expressed in HEK293T cells; The tag is written first only because the name prints it so; also called FLAG-tagged CD147; not shown: FLAG tag
B4: binds [6]; binds [7].
